Results as given in patent US20180355013A1.

Biological target: NKG2D ligands on NKG2D ligand-expressing cells
Experiment: summary of the Examples; assay not given

fold improved binding avidity against monomeric NKG2D-Fc chimeras: < 100 fold
Substance: hNKG2Dx2-hIgG1 (Fc fusion)
